Blank lines part the entries; values can stand above or below the substance they belong to.
How the values were obtained:
[1] = target: RAD-51 (nematode) (UniProt Q95Q25)
[2] = test system: RAD-51 (nematode); experiment: stopped-flow Cy3 fluorescence, competitor challenge; settings: Cy3 in backbone after nt 21; SF buffer: 50 mM Tris-HCl pH 7.5, 5 mM MgCl2, 50 mM NaCl, 2 mM ATP or ADP or no nucleotide; EMSA 25 C with 0.125% glutaraldehyde; BLI room temperature with …
[3] = test system: RAD-51 (nematode); experiment: stopped-flow Cy3 fluorescence; settings: SF buffer: 50 mM Tris-HCl pH 7.5, 5 mM MgCl2, 50 mM NaCl, 2 mM ATP or ADP or no nucleotide; EMSA 25 C with 0.125% glutaraldehyde; BLI room temperature with …

stopped-flow, Cy3-43mer ssDNA (15 nM), RAD-51 1 uM pre-mixed with increasing RFS-1/RIP-1 (up to 1 uM), no nucleotide: reduction of the fluorescence increase due to RAD-51 binding to ssDNA [1]: 3 fold
Substance: RFS-1/RIP-1 complex (from UniProt P34348 1-245)

Substance: TTTTTTTTTTTTTTTTTTTTTTTTTTTTTTTTTTTTTTTTTTT [(Int21)-Cy3-43mer]
K half [2]: 26 nM

Substance: TTTTTTTTTTTTTTTTTTTTTTTTTTTTTTTTTTTTTTTTTTT [Cy3-43mer (label position not stated)]
IC50 [3]: 200 nM

Source: paper PMC8452638
